Test results reported in patent US9395368B2, “Methods, agents and peptides for inducing an immune response to matrix metalloproteinase-2 expressing tumors” (New York University, priority 2010, dated 2016).

What was measured:
Recombinant IL-12p70 = assay: Incubation of recombinant IL-12p70 with MMP-2, IL-12p70 content by CBA; assay type: biochemical, human; details: rhIL-12 incubated for 24 h in the presence or absence of MMP-2
[1] = test system: Cord blood-derived CD4+/CD25- cells; assay: Priming of naive cord blood CD4+ T cells with autologous CD4- cells loaded with different sources of MMP-2; assay type: cell-based, human
Method: Cord blood-derived CD4^+/CD25^− cells from 11 donors were stimulated with irradiated autologous CD4^− cells loaded either with active MMP-2, heat-inactivated (HI) MMP-2 or with MMP-2 pre-incubated with a specific inhibitor (+I). After 15 days, CD4^+ T cells were stimulated with the MMP-2 peptide pool (2 μM) for 6 h before intracellular staining of cytokines. (A) Density plots representing cytokine production by CD4^+ T cells are shown for the representative donor CB35 primed to MMP-2 either in its active form or after heat-inactivation. Numbers indicate percentages of cytokine-producing cells upon MMP-2 peptide stimulation. […] MMP-2 enzymatic activity was controlled (FIG. 13C-D). For each cytokine, 3 paired t-tests were used to compare active MMP-2 to heat inactivated MMP-2, to MMP-2+I, and to MMP-2 peptides. P values≦0.0167 (*) were considered statistically significant using a Bonferroni correction for 3 comparisons.
T Cell culture, stimulation and priming. Peripheral blood mononuclear cells (PBMCs) were purified from healthy donor-(HD) or cord blood donor-(CB) derived buffy coats (New York Blood Center) by Ficoll-Paque Plus (GE Healthcare) centrifugation. CD4^+/CD25^− cells were enriched (>90%) by magnetic cell sorting (Miltenyi Biotec) and primed/stimulated for 12-15 days either with irradiated (35Gy) autologous CD4^− cells or with autologous mature DCs in IMDM (GIBCO) supplemented with 1 mM HEPES (Life Technologies), 2 mM L-glutamine (Sigma), streptomycin (100 UI/mL)/penicillin (100 μg/mL) (Sigma) and 5% heat inactivated pooled human serum (PHS; Valley Biomedical) in the presence of rhIL-2 (10 UI/mL) and IL7 (5 ng/mL) (R&D Systems). Antigen presenting cells (CD4^− cells or DCs) were loaded either with peptides (2 μM) or with the MMP-2 protein (10 μg/mL) for 2 and 5 h, respectively. DCs were matured using the TLR3 agonist poly(I:C) at 5 μg/mL/10^6 DCs (Amersham). To generate T cell clones, we originally relied on our published methodology (Godefroy et al., 2006; Godefroy et al., 2007; the entire contents of each of which is incorporated herein by reference), involving enrichment of IFNγ-secreting cells upon short-term culture and peptide stimulation to generate MMP-2 responsive clones. Briefly, CD4^+ T cells were stimulated by CD4^− cells irradiated and pulsed with peptides for 12 days in the presence of rhIL-2 and rhIL-7. CD4^+ T cells were then restimulated with peptides for 3 hours before capturing IFNγ-secreting specific cells using a bispecific antibody coating T cells and capturing produced IFNγ. Positive cells were purified magnetically before being cloned. Although MMP-2-specific cells could be isolated, it was realized that IFNγ secretion was marginal compared to their secretion of IL-4 and TNFα. IFNγ-secreting cells in response to MMP-2 peptide pool were enriched by cytokine-guided magnetic cell sorting (Miltenyi Biotec) as described above and cloned the following day by limiting dilution in the presence of irradiated allogeneic PBMCs, 1 μg/mL phytohemagglutinin-L (Sigma) and 150 UI/mL rhIL-2. Tumor infiltrating lymphocytes (TILs) were provided by Pr. F. Jotereau and B. Dréno. They were obtained from tumor-invaded lymph nodes of melanoma patients (stage Mb) and expanded ex vivo. These patients received autologous TILs and IL-2 infusions in a clinical trial (Labarriere et al., 2002). This protocol was approved by the Institutional Ethics Committee and registered with regulatory state authority in France (Nantes).
Intracellular staining T-bet and GATA-3 expression was measured on resting T cells. Cells were fixed (4% paraformaldehyde for 10 min at RT), permeabilized with 0.1% saponin, and stained for intracellular transcription factors. Cytokine production by T cells was also assessed by intracellular staining T cells were stimulated with 2 μM overlapping peptides. After 1 h, 10 μg/mL brefeldin A was added to the cells. […]

rhIFNAR1 = assay: Overnight incubation of rhIFNAR1 with MMP-2 (Western blot); assay type: biochemical, human; details: incubated overnight
Method: Immature DCs were incubated with MMP-2 (0.5 μg/mL or 5 μg/mL) and poly(I:C)-matured 1 h later. IL-12 levels were measured 16 h later. (A) Results are represented as a percentage of IL-12p70 levels, measured by CBA, produced when DCs were incubated with poly(I:C) only (n=11). (B) For intracellular staining of IL-12p35 and IL-12p40 chains, Brefeldin A was added 4 h after poly(I:C) activation and cells were stained after an additional 12 h incubation. Numbers in the upper right quadrants are the percentages of each population for a representative donor (n=3). (C,D) Immature DCs were incubated with MMP-2 for 1 h (5 μg/mL) before poly(I:C) maturation. Intracellular staining of phosphorylated (Y701) STAT1 (P-STAT1) was performed 3 h later. A representative donor (C) and results for all 3 donors (D) are shown. […] (E) Immature DCs were incubated with MMP-2 and poly(I:C)-matured 1 h later. IFNβ levels were measured by ELISA 16 h later. Results are represented as a percentage of IFNβ levels produced when DCs were incubated with poly(I:C) only (n=9). (F,G) 10^6DCs/lane were treated with 0.1 μg MMP-2 or controls. Poly(I:C) was added 1 h later. IFNAR1 protein expression was detected the next day by Western blot analysis using a rabbit monoclonal antibody. […]
Western blots IFNAR1 and β-actin were detected by Western blot analysis using rabbit and mouse mAbs, respectively. […]

B1: active MMP-2: Purified human MMP-2 (mixture of the proenzyme (50%) and the active form (50%)) purchased from Biomol (protein, listed as Homo sapiens)
chain: MEALMARGALTGPLRALCLLGCLLSHAAAAPSPIIKFPGDVAPKTDKELAVQYLNTFYGCPKESCNLFVLKDTLKKMQKFFGLPQTGDLDQNTIETMRKPRCGNPDVANYNFFPRKPKWDKNQITYRIIGYTPDLDPETVDDAFARAFQVWSDVTPLRFSRIHDGEADIMINFGRWEHGDGYPFDGKDGLLAHAFAPGTGVGGDSHFDDDELWTLGEGQVVRVKYGNADGEYCKFPFLFNGKEYNSCTDTGRSDGFLWCSTTYNFEKDGKYGFCPHEALFTMGGNAEGQPCKFPFRFQGTSYDSCTTEGRTDGYRWCGTTEDYDRDKKYGFCPETAMSTVGGNSEGAPCVFPFTFLGNKYESCTSAGRSDGKMWCATTANYDDDRKWGFCPDQGYSLFLVAAHEFGHAMGLEHSQDPGALMAPIYTYTKNFRLSQDDIKGIQELYGASPDIDLGTGPTPTLGPVTPEICKQDIVFDGIAQIRGEIFFFKDRFIWRTVTPRDKPMGPLLVATFWPELPEKIDAVYEAPQEEKAVFFAGNEYWIYSASTLERGYPKPLTSLGLPPDVQRVDAAFNWSKNKKTYIFAGDKFWRYNEVKKKMDPGFPKLIADAWNAIPDNLDAVVDLQGGGHSYFFKGAYYLKLENQSLKSVKFGSIKSDWLGC
IL-12p70 levels after incubation of rhIL-12 with MMP-2 (Recombinant IL-12p70): remained the same
percentage of MMP-2-specific CD4+ T cells secreting IL-4, mean ([1]; 11 cord blood donors, 15 days after priming, after background subtraction): 2.38%
IFNγ and IL-2 production compared to inactive MMP-2 or peptides ([1]; primed cells, 15 days): less
degradation of rhIFNAR1 (≈110 kD) (rhIFNAR1): degraded
